Assay [1] addresses T1, PDL1/His protein (human, UniProt Q9NZQ7 19-238, limits assumed, biotin-labeled in Examples 4 and 6 (site not stated); unlabeled in Example 9).
T1 construct: The reagent is named only PDL1/His; also called Biotin-labeled PDL1/His; Bio-PDL1; not shown: His tag
As to the kind of experiment: relative affinity ranking, sandwich ELISA, biotin-PDL1/His titrated from 5 ug/mL. On the procedure: The expression supernatants of the 11 single-point mutation molecules screened out in Example 4 and the 4 hotspot combination molecules screened out in Example 5 were subjected to relative affinity ranking. The specific process is as follows: The plate was coated with 1 μg/mL Goat-anti-human IgG Fc at 4° C. overnight. The coating solution was discarded the next day, and the plate was washed 5 times. Blocking was performed with 1% BSA at room temperature for 1 h, and the plate was washed 5 times. 50 μL of 2-fold diluted expression supernatant was added to each well and incubation was performed at room temperature for 1 h, and the plate was washed 5 times. Biotin-labeled PDL1/His diluted in series was added with 5 μg/mL in the first well, 3-fold dilution, and the last well as blank, and incubation was performed at room temperature for 1 h, and the plate was washed 5 times. SA-HRP was added, and incubation was performed at room temperature for 0.5 h, and the plate was washed 10 times. TMB color development was terminated after 4 min, and the absorbance at 450 nm was read.
On the technique in general: An ELISA detects its analyte on a solid surface through an enzyme-linked reagent.

Assay [2] deals with T1, PDL1/His protein. As to the kind of experiment: hotspot screening sandwich ELISA, anti-human Fc 1.0 ug/mL, Bio-PDL1 4 ng/ml. On the procedure:
Goat-anti-human IgG Fc was subjected to serial dilution in Table 5 and coating was performed overnight at 4° C. The coating solution was discarded the next day, and the plate was washed 5 times. Blocking was performed with 1% BSA at room temperature for 1 h, and the plate was washed 5 times. 50 μL B378737 expression supernatant was added to each well, incubation was performed at room temperature for 1 h, and the plate was washed 5 times. Biotin-labeled PDL1/His protein diluted in series was added, incubation was performed at room temperature for 1 h, and the plate was washed 5 times. SA-HRP was added, incubation was performed at room temperature for 0.5 h, and the plate was washed 10 times. TMB color development was terminated after 4 min, and the absorbance at 450 nm was read. […] The sample was the mutant expressing supernatant, and the other processes were the same as above.

Assay [3] concerns the target T1, PDL1/His protein. As to the kind of experiment: sandwich ELISA screen of hotspot combinations, as in Example 4.
In assay [4] the target is T1, PDL1/His protein. As to the kind of experiment: Biacore 8K (SPR), purified antibody. (In general: Surface plasmon resonance follows binding to a sensor surface in real time, without labels.)

T1 sequence (Q9NZQ7 19-238 limits assumed): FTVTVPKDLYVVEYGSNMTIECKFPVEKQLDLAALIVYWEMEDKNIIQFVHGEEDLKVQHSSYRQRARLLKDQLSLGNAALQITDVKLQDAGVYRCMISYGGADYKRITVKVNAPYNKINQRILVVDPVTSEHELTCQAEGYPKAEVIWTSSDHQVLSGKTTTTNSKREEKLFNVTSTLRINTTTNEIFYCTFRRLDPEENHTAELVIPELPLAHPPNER

B1: B378737-32 (VHH)
VHH: QVQLVESGGGLVQPGGSLRLSCAASARSINGQEWYRQAPGERRELVAGITAGGSAYYTDTVKGRFTISRDNAENTGYLQMNSLSPDDTAVYYCRRQYGPNWYWGQGTQVTVSS
notes: Single-point mutant of B378737 (position 32); not shown: human IgG Fc implied (supernatant captured with goat anti-human IgG Fc)
For the molecule B1, the binding result in assay [1] was “binds”.

B2: B378737-61-7 (VHH)
VHH: QVQLVESGGGLVQPGGSLRLSCAASARSINGMEWYRQAPGERRELVAGITAGGSAYYTDTLKGRFTISRDNAENTGYLQMNSLSPDDTAVYYCRRQYGPNWYWGQGTQVTVSS
notes: Single-point mutant of B378737 (position 61); not shown: human IgG Fc implied (supernatant captured with goat anti-human IgG Fc)
For B2, the binding result in assay [1] is recorded as “binds”.

B3: B378737-51 (VHH)
VHH: QVQLVESGGGLVQPGGSLRLSCAASARSINGMEWYRQAPGERRELVAGITSGGSAYYTDTVKGRFTISRDNAENTGYLQMNSLSPDDTAVYYCRRQYGPNWYWGQGTQVTVSS
notes: Single-point mutant of B378737 (position 51); not shown: human IgG Fc implied (supernatant captured with goat anti-human IgG Fc)
Consider B3, for which the binding result in assay [1] is on record as “binds”.

B4: B378737-97-1 (VHH)
VHH: QVQLVESGGGLVQPGGSLRLSCAASARSINGMEWYRQAPGERRELVAGITAGGSAYYTDTVKGRFTISRDNAENTGYLQMNSLSPDDTAVYYCRRQFGPNWYWGQGTQVTVSS
notes: Single-point mutant of B378737 (position 97); not shown: human IgG Fc implied (supernatant captured with goat anti-human IgG Fc)
On to B4, for which the binding result in assay [2] is reported as “binds”.

B5: B378737-ZH-2 (VHH)
VHH: QVQLVESGGGLVQPGGSLRLSCAASARSINGQEWYRQAPGERRELVAGITAGGSAYYTDTVKGRFTISRDNAENTGYLQMNSLSPDDTAVYYCRRQVGPNWYWGQGTQVTVSS
notes: Hotspot combination (positions 32 and 97); not shown: human IgG Fc implied (supernatant captured with goat anti-human IgG Fc)
With B5, in assay [3], the binding result is “binds”.

B6: B378737-61-2 (VHH)
VHH: QVQLVESGGGLVQPGGSLRLSCAASARSINGMEWYRQAPGERRELVAGITAGGSAYYTDTYKGRFTISRDNAENTGYLQMNSLSPDDTAVYYCRRQYGPNWYWGQGTQVTVSS
notes: as for B2
For the molecule B6, the binding result in assay [1] is recorded as “binds”.

B7: B378737-61-6 (VHH)
VHH: QVQLVESGGGLVQPGGSLRLSCAASARSINGMEWYRQAPGERRELVAGITAGGSAYYTDTKKGRFTISRDNAENTGYLQMNSLSPDDTAVYYCRRQYGPNWYWGQGTQVTVSS
notes: as for B2
Regarding B7, the binding result in assay [1] is “binds”.

B8: B378737-61-4 (VHH)
VHH: QVQLVESGGGLVQPGGSLRLSCAASARSINGMEWYRQAPGERRELVAGITAGGSAYYTDTTKGRFTISRDNAENTGYLQMNSLSPDDTAVYYCRRQYGPNWYWGQGTQVTVSS
notes: as for B2
As for B8, the binding result in assay [1] was “binds”.

B9: B378737-ZH-1 (VHH)
VHH: QVQLVESGGGLVQPGGSLRLSCAASARSINGQEWYRQAPGERRELVAGITAGGSAYYTDTVKGRFTISRDNAENTGYLQMNSLSPDDTAVYYCRRQFGPNWYWGQGTQVTVSS
notes: as for B5
For B9, in assay [4], the “fold increase of affinity over the parent antibody B378737” value is 10 times.

B10: B378737-ZH-4 (VHH)
VHH: QVQLVESGGGLVQPGGSLRLSCAASARSINGQEWYRQAPGERRELVAGITAGGSAYYTDTHKGRFTISRDNAENTGYLQMNSLSPDDTAVYYCRRQVGPNWYWGQGTQVTVSS
notes: Hotspot combination (positions 32, 61 and 97); not shown: human IgG Fc implied (supernatant captured with goat anti-human IgG Fc)
For the molecule B10, the “fold increase of affinity over the parent antibody B378737” value in assay [4] worked out at 12 times.

B11: B378737-61-5 (VHH)
VHH: QVQLVESGGGLVQPGGSLRLSCAASARSINGMEWYRQAPGERRELVAGITAGGSAYYTDTHKGRFTISRDNAENTGYLQMNSLSPDDTAVYYCRRQYGPNWYWGQGTQVTVSS
notes: as for B2
As for B11, the binding result in assay [1] is given as “binds”.

B12: B378737-61-1 (VHH)
VHH: QVQLVESGGGLVQPGGSLRLSCAASARSINGMEWYRQAPGERRELVAGITAGGSAYYTDTPKGRFTISRDNAENTGYLQMNSLSPDDTAVYYCRRQYGPNWYWGQGTQVTVSS
notes: as for B2
In the case of B12, the binding result in assay [1] is listed as “binds”.

B13: B378737-61-3 (VHH)
VHH: QVQLVESGGGLVQPGGSLRLSCAASARSINGMEWYRQAPGERRELVAGITAGGSAYYTDTSKGRFTISRDNAENTGYLQMNSLSPDDTAVYYCRRQYGPNWYWGQGTQVTVSS
notes: as for B2
Turning to B13, in assay [1], the binding result is reported as “binds”.

B14: B378737-97-2 (VHH)
VHH: QVRLVESGGGLVQPGGSLRLSCAASARSINGMEWYRQAPGERRELVAGITAGGSAYYTDTVKGRFTISRDNAENTGYLQMNSLSPDDTAVYYCRRQVGPNWYWGQGTQVTVSS
notes: Single-point mutant of B378737 (position 97); copied as printed; not shown: human IgG Fc implied (supernatant captured with goat anti-human IgG Fc)
Consider B14, for which the binding result in assay [2] is reported as “binds”.
